Laboratory results published in paper PMC10250209, “UV-DDB stimulates the activity of SMUG1 during base excision repair of 5-hydroxymethyl-2'-deoxyuridine moieties”.

Target: UV-DDB (DDB1-DDB2 heterodimer);SMUG1 WT (UniProt Q16531+Q92466+Q53HV7)
Assay: single-molecule DNA tightrope
Details: both Qdot-labeled; 91.1% of co-localized particles stationary and persistent; tetrahydrofuran abasic site every 2 kb; EMSA: 8 nM DNA, 20 mM HEPES pH 7.5, 150 mM NaCl, 2 mM DTT (5 mM for SMUG1), 5% glycerol, 0.5 mg/ml BSA (0.5 mg/l [sic] for SMUG1), +/- 1.5 mM MgCl2, RT 20 min

Chain of UV-DDB (DDB1-DDB2 heterodimer);SMUG1 WT (Q16531 whole entry, chain 1 of 3): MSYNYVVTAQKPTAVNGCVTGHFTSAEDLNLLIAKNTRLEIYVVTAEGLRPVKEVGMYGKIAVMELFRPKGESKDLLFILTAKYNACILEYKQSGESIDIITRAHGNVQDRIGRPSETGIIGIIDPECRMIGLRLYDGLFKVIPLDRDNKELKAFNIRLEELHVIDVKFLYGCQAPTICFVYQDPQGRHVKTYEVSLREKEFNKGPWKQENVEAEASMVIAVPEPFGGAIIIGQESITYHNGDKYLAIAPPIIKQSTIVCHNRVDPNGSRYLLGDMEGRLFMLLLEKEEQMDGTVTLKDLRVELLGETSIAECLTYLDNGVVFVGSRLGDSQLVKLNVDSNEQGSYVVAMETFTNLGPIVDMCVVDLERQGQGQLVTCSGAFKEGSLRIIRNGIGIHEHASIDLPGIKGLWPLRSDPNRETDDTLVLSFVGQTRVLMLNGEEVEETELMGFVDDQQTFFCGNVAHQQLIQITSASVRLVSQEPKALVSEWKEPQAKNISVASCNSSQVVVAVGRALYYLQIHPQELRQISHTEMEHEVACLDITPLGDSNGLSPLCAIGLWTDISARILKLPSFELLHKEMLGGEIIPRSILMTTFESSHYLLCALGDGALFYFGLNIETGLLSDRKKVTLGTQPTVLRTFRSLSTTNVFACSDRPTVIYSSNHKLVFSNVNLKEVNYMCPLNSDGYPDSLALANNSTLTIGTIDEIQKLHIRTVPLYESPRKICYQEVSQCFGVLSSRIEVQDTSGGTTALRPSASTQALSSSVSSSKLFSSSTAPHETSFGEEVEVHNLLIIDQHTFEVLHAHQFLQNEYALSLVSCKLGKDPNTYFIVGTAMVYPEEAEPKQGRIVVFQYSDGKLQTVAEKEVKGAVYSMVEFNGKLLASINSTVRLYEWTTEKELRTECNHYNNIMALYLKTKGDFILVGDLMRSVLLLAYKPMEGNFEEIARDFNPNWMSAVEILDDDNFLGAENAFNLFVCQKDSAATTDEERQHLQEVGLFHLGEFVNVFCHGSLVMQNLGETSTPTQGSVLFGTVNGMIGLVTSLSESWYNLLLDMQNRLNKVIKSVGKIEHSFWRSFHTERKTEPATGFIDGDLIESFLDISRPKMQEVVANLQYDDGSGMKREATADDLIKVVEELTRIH
Chain of UV-DDB (DDB1-DDB2 heterodimer);SMUG1 WT (Q92466 whole entry, chain 2 of 3): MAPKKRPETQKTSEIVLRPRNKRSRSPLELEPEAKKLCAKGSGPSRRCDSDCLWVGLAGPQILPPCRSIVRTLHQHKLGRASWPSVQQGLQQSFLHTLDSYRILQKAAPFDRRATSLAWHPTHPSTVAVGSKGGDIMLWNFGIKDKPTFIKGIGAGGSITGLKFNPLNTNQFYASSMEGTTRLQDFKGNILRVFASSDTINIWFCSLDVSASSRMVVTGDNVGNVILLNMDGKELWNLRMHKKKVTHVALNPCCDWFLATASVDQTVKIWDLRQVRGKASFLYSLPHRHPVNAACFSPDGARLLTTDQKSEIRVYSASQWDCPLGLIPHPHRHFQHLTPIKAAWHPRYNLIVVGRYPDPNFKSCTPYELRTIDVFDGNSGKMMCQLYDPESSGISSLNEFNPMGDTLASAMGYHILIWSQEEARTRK
Chain of UV-DDB (DDB1-DDB2 heterodimer);SMUG1 WT (Q53HV7 whole entry, chain 3 of 3): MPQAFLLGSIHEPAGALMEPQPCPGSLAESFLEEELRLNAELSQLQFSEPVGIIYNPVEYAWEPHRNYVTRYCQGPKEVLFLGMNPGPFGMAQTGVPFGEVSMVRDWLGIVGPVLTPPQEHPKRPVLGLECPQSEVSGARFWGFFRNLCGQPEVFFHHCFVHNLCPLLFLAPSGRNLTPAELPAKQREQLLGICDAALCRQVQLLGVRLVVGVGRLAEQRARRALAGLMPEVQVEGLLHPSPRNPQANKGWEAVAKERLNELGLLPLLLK

Substance: DNA tightrope with one THF site every 2 kb
- binding (% of particles co-localized): 15.6
